Numbering of substitutions follows the chain as printed. In names and notes the source's numbering stands. Where two headings read alike, the source gives them in different places.
Columns and labels:
[1] = target: T1, Human FAP ectodomain + poly-lys-tag + his6-tag (human, UniProt Q12884 27-760); experiment: SPR (Biacore), bispecific antibody bound to immobilised human DR5-Fc, recombinant human FAP as second analyte (simultaneous binding)
T1 construct: also called recombinant soluble human FAP; hFAP

[2] = target: murine FAP on recombinant 3T3 cells (murine, UniProt P97321 1-761); experiment: cell-based or functional assay
[3] = target: T2, cynomolgus DR5 in the TagLite assay (cynomolgus); experiment: TagLite TR-FRET on cells
T2 construct: also called cy DR5 (TagLite)

[4] = target: T1, Human FAP ectodomain + poly-lys-tag + …; experiment: SPR, bispecific captured by anti human IgG (Fc), human FAP 5 µg/ml
[5] = target: T3, human DR5 (recombinant, fusion format not stated for the assay) (human, UniProt O14763 56-207); experiment: SPR (Biacore), 2+2 over immobilised DR5 ECD
T3 construct: all antigen constructs carry ECD aa 56-207; also called hu DR5; huDR5

[6] = target: T3, human DR5 (recombinant, fusion format …); experiment: SPR (Biacore), affinity, 2+2 captured and DR5 injected
[7] = target: T4, Cynom. DR5 (ECD)-AcTev-Fc-Avi (cynomolgus); experiment: as above
T4 construct: also called cynomolgus DR5; cy DR5

[8] = target: T5, Murine FAP ectodomain + poly-lys-tag + his6-tag (murine, UniProt P97321 27-761); experiment: SPR (Biacore), bispecific antibody bound to immobilised human DR5-Fc, recombinant soluble murine FAP as second analyte (simultaneous binding)
T5 construct: also called recombinant soluble murine FAP

[9] = target: T1, Human FAP ectodomain + poly-lys-tag + …; experiment: SPR (Biacore), bispecific antibody bound to immobilised human DR5-Fc, recombinant soluble human FAP as second analyte (simultaneous binding)
human FAP on cells = target: T6, human FAP on cells (human, UniProt Q12884 1-760); experiment: FACS on recombinant HEK293 cells expressing human FAP
T6 construct: whole, on cells; also called human FAP expressed on recombinant HEK293 cells; FAP on GM05389 fibroblasts

[10] = target: T7, Hu DR5 (ECD)-AcTev-Fc-Avi (human); experiment: SPR (Biacore), biotinylated human DR5-Fc on a streptavidin chip, bispecific antibody as first analyte
T7 construct: dimeric Fc fusion, biotinylated on the Avi tag where immobilised on streptavidin; also called human DR5-Fc; huDR5Fc

[11] = target: T1, Human FAP ectodomain + poly-lys-tag + …; experiment: SPR (Biacore), bispecific antibody bound to immobilised human DR5-Fc, recombinant soluble human FAP as second analyte (simultaneous binding); remark: listed apart in the source
[12] = target: T5, Murine FAP ectodomain + poly-lys-tag + …; experiment: SPR (Biacore), bispecific antibody bound to immobilised human DR5-Fc, recombinant soluble murine FAP as second analyte (simultaneous binding); remark: listed apart in the source
[13] = target: T7, Hu DR5 (ECD)-AcTev-Fc-Avi; experiment: SPR (Biacore), biotinylated human DR5-Fc on a streptavidin chip, bispecific antibody as first analyte; remark: listed apart in the source
Recombinant human DR4-Fc = target: T8, Recombinant human DR4-Fc (human, UniProt O00220 109-239); experiment: SPR, receptor-Fc on CM5 chip
T8 construct: bought; also called huDR4Fc; human DR4 (TNFRSF10A); Fc part of the bought chimera not given

Recombinant human OPG-Fc = target: T9, Recombinant human OPG-Fc (human, UniProt O00300 22-194); experiment: SPR, receptor-Fc on CM5 chip
T9 construct: bought; also called rhuOPGFc; human Osteoprotegerin; Fc part of the bought chimera not given
T9 sequence (looked up): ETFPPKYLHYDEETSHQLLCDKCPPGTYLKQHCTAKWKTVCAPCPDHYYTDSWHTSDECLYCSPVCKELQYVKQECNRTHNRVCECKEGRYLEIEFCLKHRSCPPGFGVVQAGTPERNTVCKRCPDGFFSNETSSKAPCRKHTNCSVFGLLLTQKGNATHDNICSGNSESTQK

[14] = target: T10, Recombinant human DcR1-Fc (human, UniProt O14798 26-221); experiment: SPR, receptor-Fc on CM5 chip
T10 construct: bought; also called huDcR1Fc; human DcR1 (TNFRSF10C); Fc part of the bought chimera not given
T10 sequence (looked up): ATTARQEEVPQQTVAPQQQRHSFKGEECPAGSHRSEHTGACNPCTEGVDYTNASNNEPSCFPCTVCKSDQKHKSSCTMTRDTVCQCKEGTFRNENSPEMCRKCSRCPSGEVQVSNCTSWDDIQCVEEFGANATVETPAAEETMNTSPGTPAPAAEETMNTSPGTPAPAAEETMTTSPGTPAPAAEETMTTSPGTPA

[15] = target: T11, Recombinant human DcR2-Fc (human, UniProt Q9UBN6 56-211); experiment: SPR, receptor-Fc on CM5 chip
T11 construct: bought for the phage antibodies; also called huDcR2Fc; human DcR2 (TNFRSF10D); not shown: Fc part of the chimera
T11 sequence (looked up): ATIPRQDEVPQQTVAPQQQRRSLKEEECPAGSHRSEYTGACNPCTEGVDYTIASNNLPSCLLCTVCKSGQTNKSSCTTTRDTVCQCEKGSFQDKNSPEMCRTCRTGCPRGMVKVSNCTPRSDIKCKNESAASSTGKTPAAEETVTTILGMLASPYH

[16] = target: T12, murine DR5 ECD-AcTev-hu Fc-Avi (murine, UniProt Q9QZM4 53-153); experiment: SPR, biotinylated DR5 on SA chip
T12 construct: range 53-153; also called mouse DR5

B1: DR5(5E11)-28H1 VHCL 2 + 2 (bispecific antibody, human IgG1, kappa)
heavy: not shown
light: EIVLTQSPGTLSLSPGERATLSCRASQSVSSSYLAWYQQKPGQAPRLLIYGASSRATGIPDRFSGSGSGTDFTLTISRLEPEDFAVYYCQQGTTHPITFGQGTKVEIKRTVAAPSVFIFPPSDEQLKSGTASVVCLLNNFYPREAKVQWKVDNALQSGNSQESVTEQDSKDSTYSLSSTLTLSKADYEKHKVYACEVTHQGLSSPVTKSFNRGEC
chain: EIVLTQSPGTLSLSPGERATLSCRASQSVSRSYLAWYQQKPGQAPRLLIIGASTRATGIPDRFSGSGSGTDFTLTISRLEPEDFAVYYCQQGQVIPPTFGQGTKVEIKSSASTKGPSVFPLAPSSKSTSGGTAALGCLVKDYFPEPVTVSWNSGALTSGVHTFPAVLQSSGLYSLSSVVTVPSSSLGTQTYICNVNHKPSNTKVDKKVEPKSCD
notes: also called DR5TAA-0030
binding result [1]: binds
Cell Death Detection ELISA, DLD-1 cells with 3T3 cells expressing murine FAP [2]: 10 fold
Avidity [3]: 0.4 nM

B2: DR5(5E11)-28H1 VHCL 2 + 2 P329GLALA (bispecific antibody, human IgG1, kappa, L234A L235A)
heavy: not shown
light: B1 light
chain: B1 chain
notes: C-terminal lysine removed, L234A L235A P329G in Fc; also called DR5TAA-0057; format A
Cell Death Detection ELISA, DLD-1 cells with 3T3 cells expressing murine FAP [2]: 10 fold
FAP [RU max] [4]: 40.8 RU
Avidity [3]: 0.6 nM

B3: DR5TAA-0035 (bispecific antibody, human IgG1, kappa)
heavy: not shown
light: ADIVMTQTASPVSAAVGGTVTINCQASQSISSSYVSWYQQKPGQPPKLLIYKASTLASGVPSRFSGSGSGTQLSLTIRGVQCDDAATYYCLYGYSDVSSSEYVFGGGTEVVVRRTVAAPSVFIFPPSDEQLKSGTASVVCLLNNFYPREAKVQWKVDNALQSGNSQESVTEQDSKDSTYSLSSTLTLSKADYEKHKVYACEVTHQGLSSPVTKSFNRGEC
chain: B1 chain
notes: also called 0016-28H1
binding result [1]: binds
Avidity [5]: 0.08 nM
Cell Death Detection ELISA, DLD-1 cells with 3T3 cells expressing murine FAP [2]: 10 fold
Avidity [3]: 0.7 nM
Kd [6]: 5.1 nM
Kd [7]: 2 nM

B4: Drozitumab-X-FAP_A (2 + 2) (bispecific antibody, human IgG1, lambda)
heavy: not shown
chain: B1 chain
light: SELTQDPAVSVALGQTVRITCSGDSLRSYYASWYQQKPGQAPVLVIYGANNRPSGIPDRFSGSSSGNTASLTITGAQAEDEADYYCNSADSSGNHVVFGGGTKLTVLGQPKAAPSVTLFPPSSEELQANKATLVCLISDFYPGAVTVAWKADSSPVKAGVETTTPSKQSNNKYAASSYLSLTPEQWKSHRSYSCQVTHEGSTVEKTVAPTECS
notes: 4G8 VH-CL fused to the C-terminus of the Drozitumab heavy chain; also called GA803_A01_E02A_014
binding result [8]: binds
binding result [9]: binds
binding result (human FAP on cells): binds
binding result [10]: binds

B5: Drozitumab-X-FAP_B (2 + 2) (bispecific antibody, human IgG1, lambda)
heavy: not shown
chain: not shown
light: B4 light
notes: 4G8 VL-CH1 fused to the C-terminus of the Drozitumab heavy chain; also called GA803_A01_E02A_015
binding result [11]: binds
binding result (human FAP on cells): binds
binding result [12]: binds
binding result [13]: binds

B6: 4G8 IgG (antibody, V domains shown)
VH: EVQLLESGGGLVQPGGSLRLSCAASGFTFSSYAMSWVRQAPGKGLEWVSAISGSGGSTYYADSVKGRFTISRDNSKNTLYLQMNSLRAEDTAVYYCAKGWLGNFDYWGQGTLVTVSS
VL: EIVLTQSPGTLSLSPGERATLSCRASQSVSRSYLAWYQQKPGQAPRLLIIGASTRATGIPDRFSGSGSGTDFTLTISRLEPEDFAVYYCQQGQVIPPTFGQGTKVEIK
notes: also called FAP (4G8) IgG molecule; parental 4G8 IgG
binding result (human FAP on cells): binds

B7: 4G8_scFab_HC (bispecific antibody, human IgG1, kappa, lambda)
heavy: not shown
light: B4 light
notes: also called GA803_A01_B02A_001; Drozitumab-scFab-FAP
binding result (human FAP on cells): binds

B8: DR5TAA-0077 (bispecific antibody, human IgG1, kappa)
heavy: not shown
chain: not shown
light: B1 light with S31R, Y50I, S54T, T93Q, T94V, H95I, I97P
notes: also called format C
FAP [RU max] [4]: 41.9 RU

B9: DR5TAA-0078 (bispecific antibody)
heavy: not shown
chain: B1 chain with R31S, I50Y, T54S, Q93T, V94T, I95H, P97I
light: B1 light with S31R, Y50I, S54T, T93Q, T94V, H95I, I97P
notes: also called format D
FAP [RU max] [4]: 38.4 RU

B10: DR5TAA-0081 (bispecific antibody, human IgG1, kappa, L234A L235A)
heavy: not shown
light: B1 light
chain: EVQLLESGGGLVQPGGSLRLSCAASGFTFSSHAMSWVRQAPGKGLEWVSAIWASGEQYYADSVKGRFTISRDNSKNTLYLQMNSLRAEDTAVYYCAKGWLGNFDYWGQGTLVTVSSASVAAPSVFIFPPSDEQLKSGTASVVCLLNNFYPREAKVQWKVDNALQSGNSQESVTEQDSKDSTYSLSSTLTLSKADYEKHKVYACEVTHQGLSSPVTKSFNRGEC
notes: also called format F
FAP [RU max] [4]: 7.2 RU

B11: 21H3 (antibody, IgG1, V domains shown)
VH: not shown
VL: B6 VL with R31S, I50Y, T54S, Q93S, V94Q, I95P, P97I
notes: hu IgG1
binding result (Recombinant human DR4-Fc): no binding (tested: 500, 100 and 25 nM)
binding result (Recombinant human OPG-Fc): no binding (tested: 500, 100 and 25 nM)
binding result [14]: no binding (tested: 500, 100 and 25 nM)
binding result [15]: no binding (tested: 500, 100 and 25 nM)
binding result [16]: no binding (tested: 500, 100 and 25 nM)

B12: 22E9 (antibody, IgG1, V domains shown)
VH: not shown
VL: B6 VL with R31S, I50Y, T54S, Q93S, V94N, I95Q, P97V
notes: hu IgG1
binding result (Recombinant human DR4-Fc): no binding (tested: 500, 100 and 25 nM)
binding result (Recombinant human OPG-Fc): no binding (tested: 500, 100 and 25 nM)
binding result [14]: no binding (tested: 500, 100 and 25 nM)
binding result [15]: no binding (tested: 500, 100 and 25 nM)
binding result [16]: no binding (tested: 500, 100 and 25 nM)

Reference: patent publication US20190062453A1 (Hoffmann-La Roche, published 2019)
